Assay results from the nanobody polyreactivity screen of Harvey et al. (2022).

Assay: yeast display, Sf9 membrane polyspecificity reagent, FACS + sequencing; frameworks hold sequencing errors
Summary of the method: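 Using colony PCR, genes from sorted yeast display clones were amplified, then sequenced on MiSeq at 2 × 250 and filtered by CDR length. The clones had been stained with 10% biotinylated, detergent-solubilized Sf9 membrane reagent for 1 hour at 4 °C and sorted by FACS into low and high (top ~1%) gates on anti-HA and streptavidin fluorescence. Polyreactivity labels come from the gate of origin.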

Row | Sequence | polyreactivity (PSR sort gate)
1 | QVQHVESGVGLVQAVGSLRLSCAASGLTIDYNAMGWDRQAPVKERELVAAISWSGGSTYYADSLKGRFTISRDNAKNTVYLQMNSLKPEDNAVYYCNALPHIVIGGIICYEYWGQGTQVTVSS | high polyreactivity
2 | QVQLVESGGGLVQAGGSLRLSCAASGSIFFGYGMGWYRQAPGKERELVATITTSGGTYYADAVKGRFTISRDNAKNTVYLQMNSLKPEDTAVYYCAATAAALDGNTIMYYWGQGTQVTVSS | low polyreactivity
3 | QVQLVESGGGLVQAGGSLRLSCAASGFTFTHYAMGWYREAPGKERELVAAISTSVGSKYYADSVKGRFTISRDNAKNTVYVQMNSLKPEDTAVYYFAARRDGWVQWGNYYWGQVTQVTVSS | low polyreactivity
4 | QEQLLESGGALVQAGGSLRLSCMASGSILGDRMSWYRQAPGKEHELVATIYDGGITYYADSMKGRFTISRDNAKNTVYLQMNSLRPEDTAVYYCGASFEGYRYHVYCGQGTQVTVSS | low polyreactivity
5 | QVQLVESGGGLVQAGGSLRISCAASGSTLRRYAMGWYRQAPGKERELVAAISGSGDSTYYADSVKGRFTISRDNAKNTVYLQMNSLKPEDTAVYYCNAVYAFNGYDYWGQGTQVTVSS | low polyreactivity
6 | QVQLVDSGGGLVQAGGSLRLSCAASGRTFYRNAMGWYRQAPGKVRELVAGISSGGFTYYADSVKGRFTITRDNAKNTFYLQMNSLKPEDTPVYYCAASAWSGYWFDYWGQGTQVTVSS | high polyreactivity
7 | QVQLVESGGGLVQAGGSLRLSCAASGRIFKWYAMGWYRQAPGKERELVAVITVSGGSTTYADSVKGRFTISLDNAKNTVYLQMNSLKQEDTAVYYCNAVYYRSRFGTSIRYDYWGQGTQVTVSS | high polyreactivity
8 | QVQLVESGGGLVQAGGSLRLSCAASGSIFLYYAMGWYRQAPGNERELVAGINRVGSTNYADSVKGRFTISRDNAKNTVYLQMNSLKPEDTAVYYCNKRATRSRRRGYWGQGTQVTVSS | low polyreactivity
9 | QVQLVASGGGLVQAGGSLRLSCAASGLIFYIYMGWYRQGPGKERELVAVISSSGNSTYYADSVKGRFTISRDNAKNTVYLQMNSLKQEDTAVSYCNASAYYPPSSSRYDYWGQGTQVTVSS | low polyreactivity
10 | QLQLVESVGGLDQAGGSLRLSCAASRSNFGPYAIGWYRQAPGKERELVAAITWSGDSTYYADSVKGRFTISRDNEKNTVYLQMNSLKPEDTAVYYCAAETFIWGKGTQVTVSS | low polyreactivity
11 | QVQLVESGGGLGQAGGSLRLSCAASGIIFWLYAMGWYRQAPGKDRELVAAITRSDGDTYYADSVKGRFTISRDNAKNTVYLQMNSLKPEDTAVYYCAARFTDYIHIWPFLLYNEVYYWGQGTQVTVSS | low polyreactivity
12 | QVQLVESGGGLVQAGGSLRLSCAASGTFERKVMGWYRPAPGKERELVAAISRSGSSTYYADSVKGRFTISRDNAKNTVYLQMNSLKPEDTAVYYCAARGTKQHFNYWGQGTQVTVSS | high polyreactivity
13 | QVQLVESGGGLVQAGGSLRISCAASGSNLSPYVMGWYRQAPGKERELVSTISRSGGRTYYADSEKGRFTISRDNAKNTFNLQMNSLKPEDTAVYYCAREDWGSYSDMDSWGQGTQVTVSS | low polyreactivity
14 | QFQLVETVGGLVQAGGSLRLSCAASGFTYKSYAMGWYCQAPVKERELVASISRRGGSTYYADSVKGRFTISRDNAKNNVYLQMNSLKPEDTAVYYCNKYFRYRGDYDYWGQGTQVTVSS | high polyreactivity
15 | QVQLEESGRGLVQAGGSLRLSCAASGFIFYRNTMGWYRQAPGKERELVAAISVSGGSTNYADSVKGRFTISRDNAKNTVYLQINSLKPEVTAVYYCAARVRESLVYGGWDDYWGQGTQVTVSS | high polyreactivity
16 | QVQLVDSGGGLVQAGGSLRLSCAASGSIIGVNAMGWYRQAPGKERELVAAISWSGSSTRYADSVKGRFTISRDNAKNTVYLQMNSLKPEDTAVYYCAAEAQTKWWDYYYWGQGTQVTVSS | high polyreactivity
17 | QVQLVESGGGLVQAGGSLRISCAASGPTFGYNGMGWYRQAPGKERELVAAINSGGNTNYADSVKGRFTISRDNAKYTVDFQLNSLKPEDTAVYYCAKYGTLYEPVPNEYDYWGQGTQVTVSS | low polyreactivity
